# From US12495796B2, “Compositions, methods, and applications of a synthetic surfactant” (1283581 B.C. LTD, priority 2019, dated 2025)
# B1: RSN 2: recombinant mature ranaspumin protein without signal peptide, Synthetic Amino Acid Sequence No. 2; main surfactant (protein, listed as Engystomops pustulosus)
# chain: LILDGDLLKDKLKLPVIDNLFGKELLDKFQDDVKDKYGVDTKDLKILKTSEDKRFYYVSVDAGDGEKCKFKIRKDVDVPKMVGRKCRKDDDDDDGY
# B2: RSN 5: recombinant mature ranaspumin protein without signal peptide, Synthetic Amino Acid Sequence No. 5 (protein, listed as Engystomops pustulosus)
# chain: GAPGGAAGPLLVLNILGSVVHETKPPEGVNLALKGIASSDSIASNGSVTGLAAKAIDGIRVSDFFKGHCSLTNGLNNPTWWKVDLKKSYKISSVFVTNRDDCCTERLLHAEIRIGSNPDHNHNPICAEVKTVASSNIGFCCGGMEGRYVSVSVPRKEQLSLCEVEVYGDLKKVLHCA
# B3: RSN 1: recombinant mature ranaspumin protein without signal peptide, Synthetic Amino Acid Sequence No. 1 (protein, listed as Engystomops pustulosus)
# chain: GGGNIGGGAKLGPEKPATPGIQDLLKSLLSVLNLSPPAIPEDAEAVSYRDAKNGKFRLIKIHLGGELYCHVKQIAGPILALPIVSDVVEVTGKECGKTEDDPLEDFPIP
# B4: RSN 3: recombinant mature ranaspumin protein without signal peptide, Synthetic Amino Acid Sequence No. 3 (protein, listed as Engystomops pustulosus)
# chain: IDPTGLVQILLLEQVVHKIPPGNINLARTGIATQDSDYTASAVPSEARLAIDGNRNSDFNQKSCSHTGGNEPAWWRLELKKKSKISVVVIAIRSDCCMDRFKGAELRIGNSQDATVNPICGKVSAVKGSNYLFCCDGMEGKYISVVIPDRHEFLSLCEVEVYGAKPIEGTHCK
# B5: RSN 4: recombinant mature ranaspumin protein without signal peptide, Synthetic Amino Acid Sequence No. 4 (protein, listed as Engystomops pustulosus)
# chain: DRNLALDGRATMSSIWMDPDIRQSFLGVAMNGIDGNTDSVYFHGSCFHTGLDSPAWYRVDLLRTSKISSITITNRGDFGSRTNGAEIRIGDSLANNGNNNPRCALVTSIADGETRTFQCNNMVGRYVNIVLTGKTEFLHLCEVQIFGENLPRSFSCQYSNDGMITLLVSTRFMK
# B6: RSN 6: recombinant mature ranaspumin protein without signal peptide, Synthetic Amino Acid Sequence No. 6 (protein, listed as Engystomops pustulosus)
# chain: ETLCIPGRMKQLDAGAGRVVAVKSNGDVYQLLENNWVQIPGKLIHVTVGPAGLWGVNKDKNIYKYVDNDWLQVDGLLNQIDAGGNRFVVGVNDNEDIFCLNQDQTTSNAVKLDYKGVDGKLKYYSSGGYGSWGVNAAYDIFYRRNVHPMSCQGTNWENVEGKLVMLEVAEDGSVYGVNYNGHVYKREGITAGNPMGTSWTYLKVDEKVRHVSYDRGVLYVVTIDDRIFRC
# Tests used:
# [1] = Retention of pesticide (Bifenazate) in leaves with RSN 1-6 mixture as adjuvant, GC/MS quantification; type: in vivo, Arabidopsis thaliana (columbia ecotype); conditions: Floramite + RSN 1-6 mixture vs pesticide alone
# Experimental: 12 four-week-old Arabidopsis thaliana (columbia ecotype) plants were used for the experiment. (6 control, 6 experimental) (FIG. 13).
# Growth condition: plants were grown in soil at in 16-hour days/8-hour nights light cycle with temperatures of 22° C. Lighting was provided with fluorescent bulbs giving an average light intensity of 175 micromoles/meter^2 second. Seeds were cold treated (stratification) for 3 days at 4° C. after imbibition to synchronize germination
# The experimental plants were applied with a mixture of Floramite® and RSN 1-6 mixture (50 μL of 10 mg/mL) directly to the leaves using a pipette. The control plants were applied with just the pesticide. Samples were collected at the end of 5 days and 10 days.
# 4 control leaves and 4 experimental leaves were collected at the end of 5 days and 10 days of application. The leaves were homogenized using liquid nitrogen and extracted using Methanol:Chloroform mix (2:1) (FIG. 14). […]
# A GC/MS instrument (Thermo Focus GC, Polaris ion trap MS) with a DB-5 column was used for quantification of the pesticide. […]
# Concentration of Bifenazate in control leaf sample −0.018 μg/μL (FIG. 15). […] Concentrations were calculated using the peak area of the internal standard compared to the peak area of the pesticide. The experimental leaf was calculated to have a 3.6 times the amount of Bifenazate when compared to the control leaf.
# E. coli = assay: Kirby Bauer antimicrobial assay (disk-diffusion) on E. coli culture plates; type: cell-based, Escherichia coli; conditions: 24 hours; for antimicrobial properties / radius of resistance to the E. coli colonies: 20 μL of 10 mg/mL on filter paper disc, 37° C.; for effect on E. coli colonies (kills or slows growth): conclusion from disk-diffusion; for resistance to E. coli (in words): growth of colonies near the filter paper disc
# Experimental: Antimicrobial agents stop the growth or kill microorganisms such as Escherichia coli (E. coli). The Kirby Bauer antimicrobial assay or disk-diffusion method is used to test what antibiotic will fight against which bacteria strain.^17 The Kirby Bauer antimicrobial assay, is most commonly used to monitor the growth of bacteria growth around a disk, measuring the radius/diameter of the growth from the disk if a gap is present; this can be done in a time period as short as 24 hours or as long as 5 days.^18
# RSN mixture was prepared using equal parts of each protein (RSN 1-6) in a concentration of 10 mg/mL and vortexed until combined.^22 E. coli culture plates were prepared and allowed to dry, small filter paper circles were placed on the plate, with a 20 μL of the RSN sample labeled RSN 1-6.
# Once the protein was placed on the E. coli culture plates, the plates were placed into a new Brunswick Scientific Excella E24 Incubator Shaker set at 37° C., for 24 hours. After 24 hours the plates were taken out of the incubator shaker and observed.
# [2] = Denaturing of ranaspumin proteins with increasing temperature, monitored by circular dichromium (CD); type: physicochemical; conditions: CD 200-300 nm, 0.25 mg/mL, 20-90° C. in 5° C. steps
# Experimental: The secondary structure of ranaspumin proteins can be confirmed with CD to identify if there is a presence of an α-helix, β-sheets or random coils. The CD can also be used to monitor the denaturing of a protein structure by observing the intensity of the bands on the spectra. This experiment uses increasing temperature to determine when ranaspumin proteins start to denature in the secondary structure with the use of a CD spectrum. A 3 mL solution with a concentration of 0.25 mg/mL of RSN 1-6 was diluted from a range of 2.69 mg/mL-0.50 mg/mL stock solution. The Jasco 815 […], with Jasco temperature controller and a water bath attachment was used to analyze the RSN 2 protein structure. The initial temperature was set to 20° C., the wavelength was set to 200-300 nm and the temperature was increased by 5° C. after each measurement and allowing for 60 seconds of stability before recording the next measurement, in a temperature range of 20-90° C. A bank was run for a baseline before a 1.5 mL solution was run through the CD and the spectra were monitored for a change in intensity in the bands.
molecule,measurement,setting,value
COc1ccc(-c2ccccc2)cc1NNC(=O)OC(C)C [Bifenazate],amount of Bifenazate in experimental leaf compared to control leaf,[1]; after 5 days,3.6 times
same,amount of Bifenazate in experimental leaf compared to control leaf,[1]; after 10 days,1.2 times
B1,antimicrobial properties,E. coli,presented antimicrobial properties
same,radius of resistance to the E. coli colonies,E. coli,1.1 cm
same,effect on E. coli colonies (kills or slows growth),E. coli,kills the E. coli colonies
same,resistance to E. coli (in words),E. coli,high resistance
same,temperature at which the protein starts to denature,[2],70 °C
B2,antimicrobial properties,E. coli,presented antimicrobial properties
same,radius of resistance to the E. coli colonies,E. coli,0.7 cm
same,effect on E. coli colonies (kills or slows growth),E. coli,slows the rate of the growth of the E. coli colonies
same,resistance to E. coli (in words),E. coli,moderate resistance
same,temperature at which the protein fully denatures,[2],70 °C
B3,antimicrobial properties,E. coli,did not show any antimicrobial properties
same,temperature at which the protein denatures further,[2],70 °C
same,temperature at which the protein starts to denature,[2],50 °C
B4,antimicrobial properties,E. coli,did not show any antimicrobial properties
same,temperature at which the protein fully denatures,[2],70 °C
same,temperature at which the protein starts to denature,[2],70 °C
B5,antimicrobial properties,E. coli,did not show any antimicrobial properties
same,temperature at which the protein denatures further,[2],90 °C
same,temperature at which the protein starts to denature,[2],50 °C
B6,antimicrobial properties,E. coli,did not show any antimicrobial properties
same,secondary structure staying intact up to,[2],30-39 °C
same,slowly denatures until,[2],90 °C
same,temperature at which the protein starts to denature,[2],40 °C
